According to the supplement of paper PMC9112550, “Optimization of the antimicrobial peptide Bac7 by deep mutational scanning” (BMC Biology, 2022):

system: Escherichia coli TOP10; assay: shrunken log2 fold change of peptide-encoding DNA abundance (4.5 h post-induction vs induction); higher = less antimicrobial activity (less host growth inhibition); conditions: time post-induction: 4.5 h; library: site-saturation at positions 5, 18, 19, 20
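Further: peptides expressed intracellularly from a pBAD plasmid library in pooled LB shake-flask culture, induced with 0.3% L-arabinose, DNA abundance read by NGS, three biological replicates, DESeq2 with apeglm shrinkage.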

Sequence	shrunken log2 fold change
RRIRERPPRLPRPRPRPSRTPRP	-0.111
RRIRYRPPRLPRPRPRPGFPPRP	-6.24e-05
RRIRTRPPRLPRPRPRPNVNPRP	1.5
RRIRIRPPRLPRPRPRPAAQPRP	0.14
RRIRSRPPRLPRPRPRPSRPPRP	1.28
RRIRKRPPRLPRPRPRPVTNPRP	-0.0569
RRIRERPPRLPRPRPRPRLMPRP	-0.103
RRIRPRPPRLPRPRPRPMWDPRP	-0.0234
RRIRQRPPRLPRPRPRPKFFPRP	-0.0285
RRIRGRPPRLPRPRPRPQYQPRP	-0.191
RRIRRRPPRLPRPRPRPHDVPRP	0.0619
RRIRIRPPRLPRPRPRPRWSPRP	0.0458
RRIRSRPPRLPRPRPRPWKYPRP	0.0245
RRIRNRPPRLPRPRPRPFIDPRP	-0.114
RRIRGRPPRLPRPRPRPSFCPRP	0.348
RRIRDRPPRLPRPRPRPNAWPRP	-0.0496
RRIRSRPPRLPRPRPRPKGPPRP	-0.00375
RRIRQRPPRLPRPRPRPNPNPRP	-0.0129
RRIRYRPPRLPRPRPRPFMLPRP	-1.19
RRIRLRPPRLPRPRPRPLYVPRP	-0.897
RRIRYRPPRLPRPRPRPPSAPRP	0.388
RRIRERPPRLPRPRPRPQWYPRP	-0.56
RRIRMRPPRLPRPRPRPIQWPRP	0.144
RRIRLRPPRLPRPRPRPLARPRP	0.615
RRIRIRPPRLPRPRPRPWVPPRP	-0.28

Sequence	shrunken log2 fold change
RRIRWRPPRLPRPRPRPFYHPRP	-0.0855
RRIRERPPRLPRPRPRPGSCPRP	-0.0703
RRIRKRPPRLPRPRPRPEWGPRP	0.755
RRIRFRPPRLPRPRPRPEIKPRP	0.058
RRIRARPPRLPRPRPRPDWRPRP	0.146
RRIRIRPPRLPRPRPRPWFKPRP	-1.74
RRIRTRPPRLPRPRPRPDDMPRP	-0.0233
RRIRGRPPRLPRPRPRPRAGPRP	1.36
RRIRSRPPRLPRPRPRPQCMPRP	-0.584
RRIRPRPPRLPRPRPRPGNVPRP	-0.344
RRIRFRPPRLPRPRPRPTFTPRP	-0.157
RRIRERPPRLPRPRPRPEPHPRP	-0.122
RRIRWRPPRLPRPRPRPQRYPRP	0.0066
RRIRSRPPRLPRPRPRPLYNPRP	-0.344
RRIRPRPPRLPRPRPRPYFNPRP	-0.619
RRIRKRPPRLPRPRPRPTLTPRP	0.283
RRIRIRPPRLPRPRPRPATWPRP	-0.273
RRIRSRPPRLPRPRPRPDWIPRP	-0.337
RRIRVRPPRLPRPRPRPLCVPRP	1.22
RRIRDRPPRLPRPRPRPWDPPRP	0.0959
RRIRIRPPRLPRPRPRPMATPRP	-0.0167
RRIRYRPPRLPRPRPRPIKTPRP	-0.154
RRIRDRPPRLPRPRPRPIYMPRP	-0.106
RRIRFRPPRLPRPRPRPLSNPRP	-0.504
RRIRNRPPRLPRPRPRPDLRPRP	-0.105

Sequence	shrunken log2 fold change
RRIRFRPPRLPRPRPRPWLDPRP	-0.0286
RRIRNRPPRLPRPRPRPMMDPRP	-0.425
RRIRKRPPRLPRPRPRPWTYPRP	0.0938
RRIRGRPPRLPRPRPRPWKNPRP	-0.138
RRIRCRPPRLPRPRPRPRWIPRP	0.0454
RRIRRRPPRLPRPRPRPEWTPRP	0.0215
RRIRGRPPRLPRPRPRPTMVPRP	0.786
RRIRFRPPRLPRPRPRPSWEPRP	-0.0476
RRIRIRPPRLPRPRPRPLHMPRP	-0.571
RRIRDRPPRLPRPRPRPENLPRP	0.0863
RRIRIRPPRLPRPRPRPRMHPRP	-0.0356
RRIRMRPPRLPRPRPRPGPGPRP	2.09
RRIRQRPPRLPRPRPRPHVNPRP	0.0398
RRIRWRPPRLPRPRPRPDRIPRP	0.082
RRIRTRPPRLPRPRPRPQSAPRP	-0.0745
RRIRPRPPRLPRPRPRPQVPPRP	0.0319
RRIRNRPPRLPRPRPRPFLQPRP	-0.206
RRIRDRPPRLPRPRPRPEAVPRP	0.0262
RRIRGRPPRLPRPRPRPWTQPRP	0.236
RRIRNRPPRLPRPRPRPAMYPRP	-0.112
RRIRNRPPRLPRPRPRPGRGPRP	0.918
RRIRYRPPRLPRPRPRPWGRPRP	-0.186
RRIRKRPPRLPRPRPRPDDPPRP	0.237
RRIRDRPPRLPRPRPRPFKAPRP	-0.334
RRIRSRPPRLPRPRPRPATMPRP	0.00669
